# T1: human NPR1 on HEK293/hNPR1.myc.DDK cells (0 hANP) (human, UniProt P16066 33-1061)
# T1 construct: Full-length receptor on engineered HEK293 cells, no ANP added; also called HEK293/hNPR1.myc.DKK
# T1 sequence: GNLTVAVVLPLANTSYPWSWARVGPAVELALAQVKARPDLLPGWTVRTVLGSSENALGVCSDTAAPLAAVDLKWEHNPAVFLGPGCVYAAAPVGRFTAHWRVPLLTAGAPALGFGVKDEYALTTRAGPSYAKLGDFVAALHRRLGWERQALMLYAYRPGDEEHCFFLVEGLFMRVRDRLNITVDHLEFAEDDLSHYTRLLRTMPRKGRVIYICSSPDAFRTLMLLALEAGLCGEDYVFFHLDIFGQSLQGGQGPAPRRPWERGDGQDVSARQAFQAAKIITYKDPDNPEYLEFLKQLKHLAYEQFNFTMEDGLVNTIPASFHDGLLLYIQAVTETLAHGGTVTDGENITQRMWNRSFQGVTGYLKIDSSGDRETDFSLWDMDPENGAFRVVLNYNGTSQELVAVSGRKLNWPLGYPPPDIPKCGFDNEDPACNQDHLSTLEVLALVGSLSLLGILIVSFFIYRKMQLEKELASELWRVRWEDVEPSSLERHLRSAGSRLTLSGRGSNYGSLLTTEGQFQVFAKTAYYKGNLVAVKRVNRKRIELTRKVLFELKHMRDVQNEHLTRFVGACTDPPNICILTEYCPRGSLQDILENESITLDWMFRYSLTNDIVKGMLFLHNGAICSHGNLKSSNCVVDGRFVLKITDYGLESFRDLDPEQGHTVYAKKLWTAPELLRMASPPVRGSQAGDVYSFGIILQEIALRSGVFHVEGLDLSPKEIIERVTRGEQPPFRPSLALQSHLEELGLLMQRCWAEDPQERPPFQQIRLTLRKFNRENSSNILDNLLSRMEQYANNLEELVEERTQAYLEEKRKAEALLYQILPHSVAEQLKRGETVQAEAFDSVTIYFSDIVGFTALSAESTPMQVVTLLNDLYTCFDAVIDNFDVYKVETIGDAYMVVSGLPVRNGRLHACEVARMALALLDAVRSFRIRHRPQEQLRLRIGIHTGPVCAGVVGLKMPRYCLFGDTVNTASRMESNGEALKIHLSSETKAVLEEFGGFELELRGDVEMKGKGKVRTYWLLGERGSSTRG
# T2: mNPR1-mFc (mouse)
# T2 construct: also called mouse NPR1 extracellular domain expressed with a C-terminal mouse IgG2a
# T2 chain: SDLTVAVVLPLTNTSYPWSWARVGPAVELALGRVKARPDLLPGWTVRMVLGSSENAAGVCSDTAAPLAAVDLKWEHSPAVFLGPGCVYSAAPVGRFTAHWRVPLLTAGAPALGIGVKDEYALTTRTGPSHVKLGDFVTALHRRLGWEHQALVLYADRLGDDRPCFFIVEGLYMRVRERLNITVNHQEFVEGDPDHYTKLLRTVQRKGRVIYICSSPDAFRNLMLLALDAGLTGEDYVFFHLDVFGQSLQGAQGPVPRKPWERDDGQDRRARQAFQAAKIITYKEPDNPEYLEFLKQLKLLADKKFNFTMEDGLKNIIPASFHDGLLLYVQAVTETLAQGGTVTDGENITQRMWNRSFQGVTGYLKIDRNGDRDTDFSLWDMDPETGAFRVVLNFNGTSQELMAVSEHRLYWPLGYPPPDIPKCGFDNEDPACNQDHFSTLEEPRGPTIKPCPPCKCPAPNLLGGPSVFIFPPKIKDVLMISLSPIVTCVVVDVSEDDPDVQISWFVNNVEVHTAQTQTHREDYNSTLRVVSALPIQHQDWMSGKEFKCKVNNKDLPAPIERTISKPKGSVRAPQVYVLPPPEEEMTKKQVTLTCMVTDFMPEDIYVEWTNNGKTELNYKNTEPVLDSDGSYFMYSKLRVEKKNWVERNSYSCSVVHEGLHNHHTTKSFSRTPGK
# T3: human NPR1 on HEK293/hNPR1.myc.DDK cells with 10 nM hANP (NPR1-ANP complex) (human, UniProt P01160 124-151)
# T3 construct: also called NPR1-ANP Complex on the Cell Surface
# T3 sequence: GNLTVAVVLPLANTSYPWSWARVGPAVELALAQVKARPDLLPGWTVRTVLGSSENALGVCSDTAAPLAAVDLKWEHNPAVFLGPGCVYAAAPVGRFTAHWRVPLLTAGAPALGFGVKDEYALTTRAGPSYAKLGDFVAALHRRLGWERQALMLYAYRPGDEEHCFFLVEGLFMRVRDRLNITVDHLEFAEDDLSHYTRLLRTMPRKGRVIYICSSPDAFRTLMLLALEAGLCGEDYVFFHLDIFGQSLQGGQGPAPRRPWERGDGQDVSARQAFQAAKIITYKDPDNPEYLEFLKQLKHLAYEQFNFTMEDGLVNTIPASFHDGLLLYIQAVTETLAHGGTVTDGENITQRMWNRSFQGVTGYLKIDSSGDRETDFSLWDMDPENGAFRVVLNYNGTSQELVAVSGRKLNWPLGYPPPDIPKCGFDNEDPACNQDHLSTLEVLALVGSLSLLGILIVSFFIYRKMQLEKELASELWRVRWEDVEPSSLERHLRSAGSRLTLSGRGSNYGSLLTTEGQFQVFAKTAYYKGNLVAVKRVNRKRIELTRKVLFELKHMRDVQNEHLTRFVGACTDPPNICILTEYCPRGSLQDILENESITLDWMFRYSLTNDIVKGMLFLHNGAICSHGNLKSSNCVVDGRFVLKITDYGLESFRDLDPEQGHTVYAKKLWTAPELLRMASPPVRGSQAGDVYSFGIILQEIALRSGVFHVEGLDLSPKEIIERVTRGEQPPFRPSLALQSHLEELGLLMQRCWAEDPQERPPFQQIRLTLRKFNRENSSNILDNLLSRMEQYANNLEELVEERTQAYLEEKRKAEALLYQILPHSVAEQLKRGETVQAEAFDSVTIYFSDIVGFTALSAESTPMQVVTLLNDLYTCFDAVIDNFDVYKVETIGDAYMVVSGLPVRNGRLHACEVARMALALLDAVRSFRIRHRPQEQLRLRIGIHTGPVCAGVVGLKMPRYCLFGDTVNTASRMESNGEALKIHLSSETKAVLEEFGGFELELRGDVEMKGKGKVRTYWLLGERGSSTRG
# T3 sequence (peptide): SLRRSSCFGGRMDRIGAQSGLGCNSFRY
# Tests used:
# [1] = target: T1, human NPR1 on HEK293/hNPR1.myc.DDK …; assay: ECL cell binding (MSD), 0 hANP
# Protocol: (§1) All cells were washed once with 1×PBS with Ca²⁺/Mg²⁺ and counted with a Cellometer™ Auto T4 cell counter (Nexcelom Bioscience). Approximately 2.0×10⁴ HEK293/hNPR1.myc.DDK or HEK293 cells were seeded separately onto 96-well carbon electrode plates (MULTI-ARRAY high bind plate, Meso Scale Discovery (MSD, Rockville, MD)) and incubated for 1 hour (h) at 37° C. Nonspecific binding sites were blocked by 2% BSA (w/v) in 1×PBS with Ca²⁺/Mg²⁺for 1 h at room temperature (RT). HEK293/hNPR1.myc. […] The plate-bound antibodies were detected with SULFO-TAG™-conjugated goat polyclonal anti-human IgG antibody specific for heavy and light chains (Jackson Immunoresearch, West Grove, PA) for 1 h, RT.
# (§2) After washes, plates were developed with Read Buffer (MSD, Rockville, MD) according to manufacturer's recommended procedure and luminescent signals were recorded with a SECTOR Imager 600 (MSD, Rockville, MD). Luminescence intensity, measured in relative light units (RLU), was recorded to indicate the binding intensity of each antibody at the range of concentrations.
# (§3) In addition, direct binding signals (RLU) were analyzed as a function of the antibody concentration and data were fitted with a sigmoidal (four-parameter logistic) dose-response model using R statistical package (open source).
# [2] = target: T2, mNPR1-mFc; assay: SPR Biacore, mAb captured by anti-human Fc, 37C
# Protocol: (§4) Equilibrium dissociation constant (KD) for different NPR1 reagents binding to purified anti-NPR1 monoclonal antibodies (mAbs) were determined using a real-time surface plasmon resonance based Biacore 4000 biosensor. All binding studies were performed in 10 mM HEPES, 150 mM NaCl, 3 mM EDTA, and 0.05% v/v Surfactant Tween-20, pH 7.4 (HBS-ET) running buffer at 25° C. and 37° C. The Biacore CM5 sensor chip surface was first derivatized by amine coupling with either mouse anti-human Fc specific mAb (GE Healthcare, #BR100839) or goat anti-human Fcy specific polyclonal antibody (Jackson ImmunoResearch Laboratories, #BR-1008-39) to capture anti-NPR1 mAbs.
# [3] = target: T4, mfNPR1-mFc:hBNP complex (monkey; human, UniProt P16860 103-134); assay: SPR Biacore, mAb captured by anti-human Fc, 37C
# T4 construct: Receptor-Fc pre-complexed with 10-fold hBNP
# Protocol: as §4
# [4] = target: T2, mNPR1-mFc; assay: SPR Biacore, mAb captured by anti-human Fc, 25C
# Protocol: as §4
# [5] = target: T3, human NPR1 on HEK293/hNPR1.myc.DDK …; assay: ECL cell binding (MSD), +10 nM hANP
# Protocol: as §1, §2, §3
# [6] = target: T1, human NPR1 on HEK293/hNPR1.myc.DDK …; assay: cell-based or functional assay
binder,measurement,setting,value
"mAb22033 (antibody, human IgG4, V domains shown) VH: QVQLVQSGAEVKKPGASVTVSCKASGYTFTDYYMHWVRQAPGQGLEWMGWIKPNSGGTNSAQRFQGRITMTWDTSISTAYMELSRLRSDDTAVYYCSRGGPVMNYYYYYGMDVWGQGTTVTVSS VL: NIQMTQSPSSLSASVGDRVTITCRASQSIDSYLNWYQQKPGKAPKLLIYVASSLQSGVPSRFSGSGSGKDFTLTISSLQPEDFATYYCQQSYSIPTFGQGTRLEIK",EC50,[1],0.49 nM
same,Ratio at 3.7 nM Ab concentration of Cell Binding Signal (RLU) to HEK293/hNPR1.myc.DKK relative to parental HEK293,[1],207 ratio
same,100 nM Ag Bound (RU),[2],1 RU
same,100 nM Ag Bound (RU),[3],167 RU
same,Kd,[3],1.3 nM
same,koff,[3],8.8e-05 s⁻¹
same,kon,[3],67500 M⁻¹ s⁻¹
same,t½,[3],2.19 h
same,100 nM Ag Bound (RU),[4],0 RU
same,binding result,[4],no binding (tested: 100 nM)
same,EC50,[5],0.82 nM
same,Ratio at 3.7 nM Ab concentration of Cell Binding Signal (RLU) to HEK293/hNPR1.myc.DKK relative to parental HEK293,[5],236 ratio
same,"% Activation (vs ANP max), Expt 1",[6],130%
same,"% Activation (vs. ANP max), Expt II",[6],129%
same,"EC50 (nM), calcium flux, Expt 1",[6],83.7 nM
same,"EC50 (nM), calcium flux, Expt II",[6],41.6 nM

# From patent US20240309103A1 (Regeneron, published 2024)
